Reference: PMC10786891, “Massively parallel profiling of RNA-targeting CRISPR-Cas13d”
Residue numbers refer to the chain shown, from its start. Numbers in names are those of the source.

T1: EsCas13d, nuclease-dead (Eubacterium siraeum, UniProt B0MS50, R295A;H300A;R849A;H854A)
T1 sequence: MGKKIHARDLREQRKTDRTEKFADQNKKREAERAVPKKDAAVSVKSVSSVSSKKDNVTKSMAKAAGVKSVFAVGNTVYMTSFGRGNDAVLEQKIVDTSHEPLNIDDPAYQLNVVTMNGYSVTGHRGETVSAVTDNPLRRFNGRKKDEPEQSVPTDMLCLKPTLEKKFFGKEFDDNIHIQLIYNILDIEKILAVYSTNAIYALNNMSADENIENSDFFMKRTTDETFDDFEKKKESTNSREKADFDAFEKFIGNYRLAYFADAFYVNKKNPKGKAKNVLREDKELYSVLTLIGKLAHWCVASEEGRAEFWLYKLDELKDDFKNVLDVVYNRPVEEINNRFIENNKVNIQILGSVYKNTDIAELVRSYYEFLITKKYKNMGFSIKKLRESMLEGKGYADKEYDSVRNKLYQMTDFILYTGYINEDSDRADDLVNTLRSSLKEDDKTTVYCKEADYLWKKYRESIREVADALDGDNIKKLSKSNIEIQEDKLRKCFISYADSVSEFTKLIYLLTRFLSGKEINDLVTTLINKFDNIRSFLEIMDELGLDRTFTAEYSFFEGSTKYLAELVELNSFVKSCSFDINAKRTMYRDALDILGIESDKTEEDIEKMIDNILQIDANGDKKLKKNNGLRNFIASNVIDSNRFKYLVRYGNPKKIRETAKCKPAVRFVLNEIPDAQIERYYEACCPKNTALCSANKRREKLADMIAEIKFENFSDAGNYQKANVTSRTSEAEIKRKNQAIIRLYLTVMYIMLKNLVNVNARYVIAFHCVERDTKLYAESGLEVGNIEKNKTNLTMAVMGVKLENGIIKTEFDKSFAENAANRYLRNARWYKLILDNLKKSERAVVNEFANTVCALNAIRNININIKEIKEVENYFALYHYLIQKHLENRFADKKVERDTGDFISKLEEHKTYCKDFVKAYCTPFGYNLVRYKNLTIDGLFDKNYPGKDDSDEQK

B1: target 1 U10C,A16G (mixed)
RNA 1: CACCCGUGCAAAAAUGCAGGGGUCUAAAACUGAGCGGAUAACCUCUCUAUGG
RNA 2: GGGAAUGGAUCCACAUCUACGAAUUCGUACCAUAGGGAGGUCAUCCGCUCACCGAGAUCGGAAGAGCACACGU
B2: target 1 insG 3' of 18,insG 3' of 3 (mixed)
RNA 1: B1 RNA 1
RNA 2: GGGAAUGGAUCCACAUCUACGAAUUCGUACCAUAGGAGAGGUUAUCCGCUGCACCGAGAUCGGAAGAGCACACGU
B3: target 1 insG 3' of 18,insC 3' of 12 (mixed)
RNA 1: B1 RNA 1
RNA 2: B2 RNA 2 with U42C, A44U, U45A, C46U, G48C, C49G, U50C, G51U
B4: target 1 C6U,G12A (mixed)
RNA 1: B1 RNA 1
RNA 2: B1 RNA 2 with G36A, G40A, C42U, C46U
B5: target 1 insG 3' of 19,insU 3' of 5 (mixed)
RNA 1: B1 RNA 1
RNA 2: B2 RNA 2 with A34G, G35A, C49U, U50C, G51U
B6: target 1 insC 3' of 10,insA 3' of 7 (mixed)
RNA 1: B1 RNA 1
RNA 2: GGGAAUGGAUCCACAUCUACGAAUUCGUACCAUAGAGAGGUUCAUCACGCUCACCGAGAUCGGAAGAGCACACGU
B7: target 1 insG 3' of 18,insC 3' of 17 (mixed)
RNA 1: B1 RNA 1
RNA 2: GGGAAUGGAUCCACAUCUACGAAUUCGUACCAUAGGCAGAGGUUAUCCGCUCACCGAGAUCGGAAGAGCACACGU
B8: target 1 C7G,C22A (mixed)
RNA 1: B1 RNA 1
RNA 2: B1 RNA 2 with C30A, G36A, C42U, C45G
B9: target 1 U3G,G17U (mixed)
RNA 1: B1 RNA 1
RNA 2: B1 RNA 2 with G35U, G36A, C42U, U49G
B10: target 1 C6G,C21A (mixed)
RNA 1: B1 RNA 1
RNA 2: B1 RNA 2 with C31A, G36A, C42U, C46G
B11: target 1 insC 3' of 19,insC 3' of 8 (mixed)
RNA 1: B1 RNA 1
RNA 2: B2 RNA 2 with A34C, G35A, G48C, C49G, U50C, G51U
B12: target 1 G5U,A16U (mixed)
RNA 1: B1 RNA 1
RNA 2: B1 RNA 2 with G36U, C42U, G47U
B13: target 1 insU 3' of 18,insC 3' of 12 (mixed)
RNA 1: B1 RNA 1
RNA 2: B7 RNA 2 with G35U, C37A, A38G, G39A, A40G, G42C
B14: target 1 del17,del18 (mixed)
RNA 1: B1 RNA 1
RNA 2: GGGAAUGGAUCCACAUCUACGAAUUCGUACCAUAGAGGUUAUCCGCUCACCGAGAUCGGAAGAGCACACGU
B15: target 1 U10C,C21U (mixed)
RNA 1: B1 RNA 1
RNA 2: B1 RNA 2 with C31U, G36A
B16: target 1 insA 3' of 12,insA 3' of 8 (mixed)
RNA 1: B1 RNA 1
RNA 2: B6 RNA 2 with U41A, C43U, C46A, A47C
B17: target 1 insC 3' of 22,insG 3' of 9 (mixed)
RNA 1: B1 RNA 1
RNA 2: GGGAAUGGAUCCACAUCUACGAAUUCGUACCCAUAGAGAGGUUAGUCCGCUCACCGAGAUCGGAAGAGCACACGU
B18: target 1 insC 3' of 15,insG 3' of 14 (mixed)
RNA 1: B1 RNA 1
RNA 2: B7 RNA 2 with G36A, C37G, A38C, G39A, A40G
B19: target 1 insA 3' of 19,insA 3' of 5 (mixed)
RNA 1: B1 RNA 1
RNA 2: B2 RNA 2 with G35A, C49A, U50C, G51U
B20: target 1 insU 3' of 22,insA 3' of 11 (mixed)
RNA 1: B1 RNA 1
RNA 2: B17 RNA 2 with C31U, U43A, A44U, G45A
B21: target 1 insG 3' of 22,insC 3' of 8 (mixed)
RNA 1: B1 RNA 1
RNA 2: B17 RNA 2 with C31G, G45U, U46C
B22: target 1 U3A,C21U (mixed)
RNA 1: B1 RNA 1
RNA 2: B1 RNA 2 with C31U, G36A, C42U, U49A
B23: target 1 insG 3' of 20,insA 3' of 13 (mixed)
RNA 1: B1 RNA 1
RNA 2: B17 RNA 2 with C32A, A33G, G41A, U42G, A44U, G45A
B24: target 1 del7,del19 (mixed)
RNA 1: B1 RNA 1
RNA 2: GGGAAUGGAUCCACAUCUACGAAUUCGUACCAAGAGAGGUUAUCGCUCACCGAGAUCGGAAGAGCACACGU
B25: target 1 insC 3' of 11,insG 3' of 4 (mixed)
RNA 1: B1 RNA 1
RNA 2: B6 RNA 2 with U42C, C43U, A47C, C48G, G49C, C50G
B26: target 1 insA 3' of 15,insA 3' of 11 (mixed)
RNA 1: B1 RNA 1
RNA 2: B7 RNA 2 with G36A, C37G, G39A, A40G, G42U, U43A
B27: target 1 U3A,U10C (mixed)
RNA 1: B1 RNA 1
RNA 2: B1 RNA 2 with G36A, U49A
B28: target 1 C6U,A9C (mixed)
RNA 1: B1 RNA 1
RNA 2: B1 RNA 2 with G36A, C42U, A43C, C46U
B29: target 1 insG 3' of 7,insG 3' of 3 (mixed)
RNA 1: B1 RNA 1
RNA 2: B6 RNA 2 with C43A, A44U, U45C, C46G, A47C, C48G, G49C, C50U, U51G
B30: target 1 insC 3' of 22,insC 3' of 3 (mixed)
RNA 1: B1 RNA 1
RNA 2: B2 RNA 2 with A32C, U33A, A34U, G35A, G51C
B31: target 1 insU 3' of 20,insG 3' of 4 (mixed)
RNA 1: B1 RNA 1
RNA 2: B2 RNA 2 with A34U, G35A, U50G, G51U
B32: target 1 insC 3' of 17,insC 3' of 5 (mixed)
RNA 1: B1 RNA 1
RNA 2: B2 RNA 2 with G36C, U50C, G51U
B33: target 1 A14G,U19G (mixed)
RNA 1: B1 RNA 1
RNA 2: B1 RNA 2 with U33G, G36A, A38G, C42U

biological target: T1, EsCas13d, nuclease-dead; experiment: crRNA (strand 1, pre-loaded); Mg2+; 40 mM Tris-HCl pH 7.5, 150 mM NaCl, 6 mM MgCl2, 1 mM DTT, 0.1% Tween-20, 0.2 mg/ml BSA; 25 C; 10 min per concentration, then washed; details: tags: His6-TwinStrep-SUMO cleaved; N-terminal SNAP kept (SNAP-Surface 488); label: 3' end held by stalled T7 RNA polymerase

Binder | Kd
B1 | 62 ± 7 nM
B2 | 40 ± 2.7 nM
B3 | ~80 nM
B4 | 11.1 ± 0.5 nM
B5 | 86 ± 18 nM
B6 | 11.2 ± 0.6 nM
B7 | 89 ± 32 nM
B8 | 14.2 ± 0.6 nM
B9 | 20.8 ± 1.6 nM
B10 | 24.3 ± 1.5 nM
B11 | 52 ± 5 nM
B12 | 66 ± 10 nM
B13 | ~90 nM
B14 | 13.9 ± 1.6 nM
B15 | 8.5 ± 0.4 nM
B16 | 37 ± 3.3 nM
B17 | 33 ± 16 nM

Binder | Kd
B18 | 22.7 ± 1.8 nM
B19 | 16 ± 1.2 nM
B20 | 66 ± 15 nM
B21 | ~90 nM
B22 | 19 ± 6 nM
B23 | 32 ± 8 nM
B24 | 52 ± 6 nM
B25 | 22.7 ± 1.2 nM
B26 | 14.8 ± 0.8 nM
B27 | 19.7 ± 2 nM
B28 | 33.1 ± 1.9 nM
B29 | 5.41 ± 0.21 nM
B30 | 15.6 ± 1.3 nM
B31 | 10.4 ± 0.7 nM
B32 | 61 ± 6 nM
B33 | ~80 nM
